Measured values: patent US20240059785A1

Experiments:
[1] = biological target: human CD37 (Homo sapiens CD37) (Homo sapiens) (UniProt P11049); assay: cell-based or functional assay
[2] = biological target: human CD20 (Homo sapiens CD20) (Homo sapiens) (UniProt P11836); assay: cell-based or functional assay
Sequence of human CD20 (Homo sapiens CD20) (Homo sapiens) (P11836 whole entry): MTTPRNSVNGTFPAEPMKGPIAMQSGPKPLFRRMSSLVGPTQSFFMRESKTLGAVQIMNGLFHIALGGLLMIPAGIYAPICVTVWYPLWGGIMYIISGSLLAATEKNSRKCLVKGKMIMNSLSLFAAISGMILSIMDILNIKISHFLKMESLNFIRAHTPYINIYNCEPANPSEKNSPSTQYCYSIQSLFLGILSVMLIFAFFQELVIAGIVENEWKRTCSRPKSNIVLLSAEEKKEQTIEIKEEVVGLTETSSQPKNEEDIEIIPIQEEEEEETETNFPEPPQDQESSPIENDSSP

Sequence of human CD37 (Homo sapiens CD37) (Homo sapiens) (P11049 whole entry): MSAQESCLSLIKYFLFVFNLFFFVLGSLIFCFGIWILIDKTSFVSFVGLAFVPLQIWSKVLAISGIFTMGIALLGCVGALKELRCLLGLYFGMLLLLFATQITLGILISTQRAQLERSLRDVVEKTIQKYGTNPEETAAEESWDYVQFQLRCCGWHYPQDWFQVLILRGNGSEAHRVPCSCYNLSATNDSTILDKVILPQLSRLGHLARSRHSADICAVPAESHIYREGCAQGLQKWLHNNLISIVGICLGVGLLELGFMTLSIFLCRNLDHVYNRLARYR

Row | ADCC reporter assay (FcγRIII-transfected Jurkat NFAT luciferase effector cells), Mean RLU, CD37/CHO target cells, Effector:Target 4:1 [1] | ADCC reporter assay (FcγRIII-transfected Jurkat NFAT luciferase effector cells), Mean RLU, CD37/CHO target cells, Effector:Target 8:1 [1] | ADCC reporter assay (FcγRIII-transfected Jurkat NFAT luciferase effector cells), Mean RLU, CD20/CHO target cells, Effector:Target 4:1 [2] | ADCC reporter assay (FcγRIII-transfected Jurkat NFAT luciferase effector cells), Mean RLU, CD20/CHO target cells, Effector:Target 8:1 [2] | ADCC reporter assay (FcγRIII-transfected Jurkat NFAT luciferase effector cells), Mean RLU, Raji target cells (express both hCD20 and hCD37), Effector:Target 4:1 [2] | ADCC reporter assay (FcγRIII-transfected Jurkat NFAT luciferase effector cells), Mean RLU, Raji target cells (express both hCD20 and hCD37), Effector:Target 8:1 [2] | Substance
1 | 20500 RLU | 35900 RLU | – | – | – | – | rituximab (antibody)
2 | 20600 RLU | 36200 RLU | 20900 RLU | 36000 RLU | 16600 RLU | 31500 RLU | human IgG1 isotype control antibody (an anti-dinitrophenyl (anti-DNP) antibody)
